# B1: VHH-1: VHH, SEQ ID NO 1; taken from WO2021198396 (protein)
# VHH: DVQLVESGGGLVQAGGSLRLSCAASRSIFSINAMDWYRQAPGKQREWVAGITRGGTTKYADSVKGRFTISRDNAKKKVYLQMNSLKPEDTAVYYCNVLRGEQPWTRDYWGQGTQVTVSS
# modifications: Synthetic VHH sequence.
# Test system: Botrytis cinerea
# Assay: In vitro microtiter plate antifungal assay, confluence analysis (IncuCyte S3) of spore outgrowth
# Format: cell-based
# Excerpt: An “IC50 value”, “EC50”, “IC50”, “EC50” or “half maximal inhibitory concentration” as used herein interchangeably is a measure for the potency of a polypeptide or cell wall disrupting agent or compositions as described herein in inhibiting the growth of a fungal pathogen. In practice (also see example 1) the growth of a fungal pathogen is tracked by measuring the confluency of said fungal pathogen in for example a well of a 96-well plate or 384-well plate in the presence of a series of different concentrations of the tested polypeptide or cell wall disrupting agent or compositions as described herein. The confluency data at the time-point at which the non-treated or negative control reaches for example 90% saturation is then taken for each concentration of the polypeptide or cell wall disrupting agent or compositions as described herein. Said confluence values are then plotted against the log transformed concentration values yielding a sigmoidal curve. This sigmoid curve may serve to define an IC50 value. Where this IC50 is the concentration of the polypeptide or cell wall disrupting agent or compositions as described herein where the corresponding confluence value is 50% of the saturated value as estimated by the maximum of the sigmoidal function.
# The antifungal activity of VHHs, in combination with CWDEs, was assessed in an in vitro assay against the plant pathogenic fungus Botrytis cinerea. The current in vitro assay is a standard microtiter plate-based antifungal assay against Botrytis cinerea based on confluence analysis using an IncuCyte S3 System tracking the outgrowth of fungal spores overtime until saturation is reached. VHHs and CWDEs were assessed in serial dilutions, alone and in combination. The CWDEs were mixed with one VHH at a fixed ratio and serially diluted in 10 mM sterile HEPES buffer pH 7. […] Confluence was calculated with IncuCyte software version 2021C (Essen BioScience Inc.). […]
# The IC50 value for both the CWDE and VHH were determined separately (FIGS. 1A and 1B, top panel). […]
molecule,measurement,setting,value
B1,"IC50 value, determined separately","VHH or CWDE alone, confluence of Botrytis cinerea, 4-parameter log-logistic fit, CWDE protein concentration overestimated",105.2 µg/mL
same,"% change, additive effect of component, buffer normalized to 100%","dose regime VHH-1 at 16.7 mg/L and CWDE at 25 mg/L, protease inhibitor 0.06 X",20.5%
same,"Estimate (% confluence), additive effect of component, difference from buffer","dose regime VHH-1 at 16.7 mg/L and CWDE at 25 mg/L, protease inhibitor 0.06 X, buffer 55.3",11.3 % confluence
